Results on 1 molecule are retold here after patent US20230050440A1 (Seagen, published 2023).

One may read the Kd as the equilibrium constant for the complex coming apart. Read a high Kd as lower affinity.

In the assay the target is T1, murine FcγRIV expressed on CHO cells (mouse, UniProt A0A0B4J1G0 21-249).
T1 construct: also called mCD16 (the murine form of FcγRIVa)
T1 sequence: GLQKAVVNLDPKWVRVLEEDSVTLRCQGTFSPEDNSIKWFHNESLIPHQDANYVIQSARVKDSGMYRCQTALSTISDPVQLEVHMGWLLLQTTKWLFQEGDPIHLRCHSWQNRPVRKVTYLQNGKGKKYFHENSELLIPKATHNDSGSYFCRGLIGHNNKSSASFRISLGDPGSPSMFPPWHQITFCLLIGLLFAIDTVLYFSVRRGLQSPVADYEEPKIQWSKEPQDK
Put plainly: flow cytometry on CHO cells expressing mCD16 (murine FcγRIV), anti-mouse IgG FITC. (In general: In flow cytometry, cells or beads pass a laser one at a time.)

Experimental: To assess the extent of altered FcγRIV binding, antibody affinity to FcγRIV expressed on CHO cells was determined by FACS using anti-mouse IgG FITC.

B1: anti-TIGIT c13 mIgG2a LALA-PG (antibody)
heavy chain: QVQLVQSGAEVKKPGSSVKVSCKASGGTFSSYAISWVRQAPGQGLEWMGSIIPIFGTANYAQKFQGRVTITADESTSTAYMELSSLRSEDTAVYYCARGPSEVGAILGYVWFDPWGQGTLVTVSSAKTTAPSVYPLAPVCGDTTGSSVTLGCLVKGYFPEPVTLTWNSGSLSSGVHTFPAVLQSDLYTLSSSVTVTSSTWPSQSITCNVAHPASSTKVDKKIEPRGPTIKPCPPCKCPAPNAAGGPSVFIFPPKIKDVLMISLSPIVTCVVVDVSEDDPDVQISWFVNNVEVHTAQTQTHREDYNSTLRVVSALPIQHQDWMSGKEFKCKVNNKDLGAPIERTISKPKGSVRAPQVYVLPPPEEEMTKKQVTLTCMVTDFMPEDIYVEWTNNGKTELNYKNTEPVLDSDGSYFMYSKLRVEKKNWVERNSYSCSVVHEGLHNHHTTKSFSRTPGK
light chain: not shown
notes: also called LALA TIGIT
Turning to B1, binding was characterised by a dissociation constant (Kd) of 3.33 µM.
